The values that follow are results of earlier work, collected in paper PMC5741096.

The target of series [1] is IL-2Rα/IL-2Rβ/IL-2Rγ (Mus musculus) (UniProt P01590).
The target in series [2] is IL-2Rβ/IL-2Rγ (Mus musculus) (UniProt P16297).
Sequence of UniProt P16297 (P16297 27-240, chain 1 of 2): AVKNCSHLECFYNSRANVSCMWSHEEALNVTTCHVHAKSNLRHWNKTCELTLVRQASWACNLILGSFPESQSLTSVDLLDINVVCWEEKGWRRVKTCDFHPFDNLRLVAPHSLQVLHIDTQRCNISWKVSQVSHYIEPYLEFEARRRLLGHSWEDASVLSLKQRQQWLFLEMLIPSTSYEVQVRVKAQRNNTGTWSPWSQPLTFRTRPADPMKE
Sequence of UniProt P16297 (P34902 23-263, chain 2 of 2, further chain): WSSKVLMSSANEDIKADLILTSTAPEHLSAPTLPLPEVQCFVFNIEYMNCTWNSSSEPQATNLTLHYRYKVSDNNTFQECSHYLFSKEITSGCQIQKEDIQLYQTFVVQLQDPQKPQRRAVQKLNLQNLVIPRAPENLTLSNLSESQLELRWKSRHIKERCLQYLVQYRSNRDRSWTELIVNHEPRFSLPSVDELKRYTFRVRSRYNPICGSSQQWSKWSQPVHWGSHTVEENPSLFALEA

Sequence of UniProt P01590 (P01590 22-236, chain 1 of 3): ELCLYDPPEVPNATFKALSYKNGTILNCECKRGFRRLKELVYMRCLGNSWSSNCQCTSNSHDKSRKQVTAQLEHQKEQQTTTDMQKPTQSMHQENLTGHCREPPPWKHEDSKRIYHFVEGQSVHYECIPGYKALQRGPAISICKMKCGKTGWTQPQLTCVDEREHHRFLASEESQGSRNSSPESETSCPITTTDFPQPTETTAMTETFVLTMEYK
Sequence of UniProt P01590 (P16297 27-240, chain 2 of 3, further chain): as the sequence (P16297 27-240, chain 1 of 2) above
Sequence of UniProt P01590 (P34902 23-263, chain 3 of 3, further chain): as the sequence (P34902 23-263, chain 2 of 2, further chain) above

One may read the Kd as the free concentration of one partner at which half of the binding sites on the other are occupied at equilibrium, for simple one-to-one binding. For the substance IL-2 (from UniProt P04351), the Kd in series [1] is 0.01 nM; in series [2] it was 1 nM.
